Reference: patent US20230265185A1 (NATIONAL RESEARCH COUNCIL OF CANADA, published 2023)

T1: recombinant extracellular domain of the predominant human CD22-beta isoform (CD22-ECD) (human, UniProt P20273 20-687, CHO-expressed glycoprotein. Capture on an SA chip implies biotinylation, but the patent does not state it for SPR.)
T1 construct: Expressed in CHO-3E7 cells, IMAC and SEC purified, monomeric fraction; Results say it was immobilized onto a CM5 dextran chip; also called human CD22-ECD; hCD22 ecto-domain
T1 sequence: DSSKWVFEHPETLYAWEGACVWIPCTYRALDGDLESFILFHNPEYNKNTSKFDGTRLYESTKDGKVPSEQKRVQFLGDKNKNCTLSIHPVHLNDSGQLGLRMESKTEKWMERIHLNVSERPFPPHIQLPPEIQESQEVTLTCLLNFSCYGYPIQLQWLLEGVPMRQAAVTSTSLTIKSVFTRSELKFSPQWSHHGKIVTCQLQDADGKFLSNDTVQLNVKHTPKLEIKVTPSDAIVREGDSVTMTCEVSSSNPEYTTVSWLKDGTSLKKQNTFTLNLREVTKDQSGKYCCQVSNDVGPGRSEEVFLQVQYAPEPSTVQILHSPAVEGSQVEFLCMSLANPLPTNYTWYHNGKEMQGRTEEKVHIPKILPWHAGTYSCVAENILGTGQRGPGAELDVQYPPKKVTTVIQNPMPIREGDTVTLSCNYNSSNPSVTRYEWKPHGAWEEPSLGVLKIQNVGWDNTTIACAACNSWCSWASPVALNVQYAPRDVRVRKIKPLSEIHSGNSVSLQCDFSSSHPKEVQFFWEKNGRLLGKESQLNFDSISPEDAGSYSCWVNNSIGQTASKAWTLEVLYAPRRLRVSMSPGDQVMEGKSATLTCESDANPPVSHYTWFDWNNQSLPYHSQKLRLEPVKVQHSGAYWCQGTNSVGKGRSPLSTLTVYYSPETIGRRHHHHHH


These binders were tested against T1, recombinant extracellular domain of the … (assay: SPR, Biacore T200, VHH over immobilized CD22-ECD).
Description: For surface Plasmon resonance, 21 selected VHHs were passed though size exclusion columns, superdex 75 (GE Healthcare), respectively, in 10 mM HEPES, pH 7.4, containing 150 mM NaCl, 3 mM EDTA, monomeric sdAb fractions were collected and protein concentrations were determined by measuring absorbance at 280 nm (A280). Analysis were performed with Biacore T200 instrument (GE Healthcare). All measurements were carried out at 25° C. in 10 mM HEPES, pH 7.4, containing 150 mM NaCl, 3 mM EDTA and 0.005% surfactant P20 (GE Healthcare). Approximately 1919 RUs of the recombinant monomeric CD22-ECD (obtained after SEC purification of the CD22-ECD) were captured on SA sensor chip (GE Healthcare) at a flow rate of 5 uL/min. Various concentration of the monomeric VHHs were injected over CD22-ECD surface, respectively using an SA surface as a reference at a flow rate of 40 µL/min. Surfaces were generated by washing with running buffer. Data were analysed with BIAevaluation 4.1 software.
The monomeric fraction of all 21 VHHs were used for SPR experiment where the human CD22-ECD was immobilized onto the CM5 dextran chip and various VHH concentration (0.6-400 nM) were passed over the sensor chip. […] All of the data collected fit a 1:1 binding model.

| Binder | Kd | koff | kon |
| --- | --- | --- | --- |
| hCD22pas-79 (VHH, single biotin at the VHH C-terminal (biotinylation signal sequence), llama VHH, expressed in E. coli TG1, IMAC purified, monomeric SEC fraction; also called VHH # 18) VHH: QVKLEESGGGLVQPGGSLRLSCTVSGRTSSVYGMAWFRQTPGKEREFVAAMSWSGGPTYFADSVKGRFGSSRDNAKNTVYLQMNGLRPEDTAVYYCAVRIRRTLLEPLTKETLYDYWGQGTQVTVSS | 7.72 nM | 0.00397 s⁻¹ | 514000 M⁻¹ s⁻¹ |
| hCD22pas-33 (VHH, single biotin at the VHH C-terminal (biotinylation signal sequence), llama VHH, expressed in E. coli TG1, IMAC purified, monomeric SEC fraction; also called VHH # 7) VHH: QVKLEESGGGLVQPGGSLRLSCTVSGFTLDSYVMGWFRQAPGKEREAVSCISSSDGVTYYADSVKGRFTISRDNAKNTYLQMNSLKPEDTAIYYCAVDKPFYDGGYLYTCPVDFDSWGQGIQVTVSS | 2.6 nM | 0.00014 s⁻¹ | 54000 M⁻¹ s⁻¹ |
| hCD221ug-93 (VHH, single biotin at the VHH C-terminal (biotinylation signal sequence), llama VHH, expressed in E. coli TG1, IMAC purified, monomeric SEC fraction; also called VHH # 11) VHH: QVKLEESGGGLVQAGGSLRLSCAASGSTFSSSVMNWYRQAPGKQRELVAVITSSGSTHYADSVKGRFTISRDNAKNTVNLQMNSLKPEDTAVYYCNAQYGRRSDWGQGTQVTVSS | 7.7 nM | 0.0105 s⁻¹ | 1.36e+06 M⁻¹ s⁻¹ |
| hCD221ug-74 (VHH, single biotin at the VHH C-terminal (biotinylation signal sequence), llama VHH, expressed in E. coli TG1, IMAC purified, monomeric SEC fraction; also called VHH # 3) VHH: QVKLEESGGGLVQAGGSLRLSCAGSGFTFDDYAMGWFRQAPGKEREVVSCMGSSDGATYYADSVKGRFTISRDNAKNTVYLQMNSLKPEDTAIYYCAVDKPFYDGGYRYTCPVDFGSWGQGTQVTVSS | 7.08 nM | 0.000655 s⁻¹ | 92500 M⁻¹ s⁻¹ |
| hCD221ug-6 (VHH, single biotin at the VHH C-terminal (biotinylation signal sequence), llama VHH, expressed in E. coli TG1, IMAC purified, monomeric SEC fraction; also called VHH # 5) VHH: QVQLVESGGGVVRPGDSLRLSCTVSGFTLDYYVMGWFRQAPGKEREVVSCISSSDGVTYYADSVKGRFTISRDNAKNTVYLQMNSLKPEDTAIYYCAVDKPFYDGGYYYTCPVDFDSWGQGTQVTVSS | 2.41 nM | 0.000129 s⁻¹ | 53600 M⁻¹ s⁻¹ |
| hCD22pas-10 (VHH, single biotin at the VHH C-terminal (biotinylation signal sequence), llama VHH, expressed in E. coli TG1, IMAC purified, monomeric SEC fraction; also called VHH # 6) VHH: QVQLVESGGGLVQPGDSLRLSCTVSGFTSDYYAMGWFRQAPGKEREAVSCISSSDGVTYYADSVRGRFTISRDNAKNTVYLEMNSLKPEDTAIYYCAVDKPFYDGGYLYTCPVDFDSWGQGTQVTVSS | 19 nM | 0.00289 s⁻¹ | 152000 M⁻¹ s⁻¹ |
| hCD22100ng-2 (VHH, single biotin at the VHH C-terminal (biotinylation signal sequence), llama VHH, expressed in E. coli TG1, IMAC purified, monomeric SEC fraction; also called VHH # 2) VHH: QVKLEESGGGLVQPGGSLRLSCTVSGVTFDYYVMGWFRQAPGKEREVVSCMRNSDGVTYYADSVKGRFTISRDNAKNTVYLQMNSLKPDDTAIYYCAVDKPFYDGGNYYTCPVDFDSWGQGTQVTVSS | 2.78 nM | 0.00013 s⁻¹ | 46800 M⁻¹ s⁻¹ |
| hCD22pas-16 (VHH, single biotin at the VHH C-terminal (biotinylation signal sequence), llama VHH, expressed in E. coli TG1, IMAC purified, monomeric SEC fraction; also called VHH # 20) VHH: QVQLVESGGGLVQAGGSLRLSCAASGSTFSLKAMAWYRQAPGKQRERVGVINSDGSYTTDAASVQGRFTISRDNAKNTVYLQMNSLKPEDTAVYYCNTMPPWPWGQGTQVTVSS | 2.75 nM | 0.001 s⁻¹ | 365000 M⁻¹ s⁻¹ |
| hCD221ug-77 (VHH, single biotin at the VHH C-terminal (biotinylation signal sequence), llama VHH, expressed in E. coli TG1, IMAC purified, monomeric SEC fraction; also called VHH # 8) VHH: QVKLEESGGGLVQPGGSLRLSCADSGSIFRIAVMNWYRQAPGKERELVAVITSGGETHYAASVKGRFTISRDNAKNTMYLQMNSLKPEDTAVYYCNAKWGQYEYWGQGTQVTVSS | 4.77 nM | 0.00262 s⁻¹ | 550000 M⁻¹ s⁻¹ |

The next binders have a lower Kd than those just listed; values first:

| Kd | koff | kon | Binder |
| --- | --- | --- | --- |
| 0.924 nM | 0.000134 s⁻¹ | 145000 M⁻¹ s⁻¹ | hCD22100ng-66 (VHH, single biotin at the VHH C-terminal (biotinylation signal sequence), llama VHH, expressed in E. coli TG1, IMAC purified, monomeric SEC fraction; also called VHH # 4) VHH: QVQLVESGGGLVQPGGSLRLSCTVSGFSLDYYVMGWFRQAPGKEREVVSCISSSDGATYYPDSVKGRFTISRDNAKKTVYLQMNALKPEDTAIYYCAVDKPFYDGGSYYTCPVDFGSWGQGTQVTVSS |
| 0.865 nM | 0.00121 s⁻¹ | 1.4e+06 M⁻¹ s⁻¹ | hCD221ug-75 (VHH, single biotin at the VHH C-terminal (biotinylation signal sequence), llama VHH, expressed in E. coli TG1, IMAC purified, monomeric SEC fraction; also called VHH # 10) VHH: QVKLEESGGGLVQPGGSLRLSCAGSGSIFRIAVMNWYRQAPGKERELVAVITSGGDTHYAASVKGRFTISRDNAKNTMYLQINSLKPEDTAVYYCNAKYGRDEYWGQGAQVTVSS |
| 0.647 nM | 0.000797 s⁻¹ | 1.23e+06 M⁻¹ s⁻¹ | hCD221ug-87 (VHH, single biotin at the VHH C-terminal (biotinylation signal sequence), llama VHH, expressed in E. coli TG1, IMAC purified, monomeric SEC fraction; also called VHH # 9) VHH: QVQLVESGGGLVQPGGSLRLSCADSGSIFRIAVMNWYRQAPGKERELVAVITSGGETHYAASVKGRFTISRDNAKNTMYLQMNSLKPEDTAVYYCNAKWGRDEYWGQGTQVTVSS |
| 0.00684 nM | 2.1e-05 s⁻¹ | 3.07e+06 M⁻¹ s⁻¹ | hCD221ug-14 (VHH, single biotin at the VHH C-terminal (biotinylation signal sequence), llama VHH, expressed in E. coli TG1, IMAC purified, monomeric SEC fraction; also called VHH # 16; 9-hCD22 1ug-14) VHH: QVKLEESGGGLVQAGGSLRLSCAVSGRIFRSYVLGWFRQAPGKERELVARIGWSDTYYADSVKGRFTISRDNAKNTVDLQMNSLKPEDTAVYYCAANSPPYGPQRDEFDYWGQGTQVTVSS |
